Measurements reported in article PMC4622731 (mAbs, 2015).
Each block holds one molecule with its values, some of them ahead of it.

How the values were obtained:
[1] = target: cynomolgus IL-1β (Macaca fascicularis) (UniProt P79182); assay: SPR; Biacore 3000; mAb or DVD-Ig captured by goat anti-human IgG Fc on a CM5 chip; IL-1 10-200 nM flowed at 25 μL/min; HBS-EP (10 mM HEPES pH 7.4, 150 mM NaCl, 3 mM EDTA, 0.005% P20), 25°C; 1:1 Langmuir global fit, KD = koff/kon
human IL-1β (human) [2] = target: human IL-1β (human) (UniProt P01584); assay: as above
Chain of human IL-1β (human) (P01584 whole entry): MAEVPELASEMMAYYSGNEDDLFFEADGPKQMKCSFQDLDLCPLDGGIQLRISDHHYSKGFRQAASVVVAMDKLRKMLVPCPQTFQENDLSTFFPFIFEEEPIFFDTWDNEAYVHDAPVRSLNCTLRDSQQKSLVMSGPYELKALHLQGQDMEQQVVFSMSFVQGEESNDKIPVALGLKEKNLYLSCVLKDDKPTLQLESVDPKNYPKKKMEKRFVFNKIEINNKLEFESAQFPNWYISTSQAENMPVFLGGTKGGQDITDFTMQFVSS

[3] = target: cynomolgus IL-1α (Macaca fascicularis) (UniProt P79340); assay: as above
Chain of cynomolgus IL-1α (Macaca fascicularis) (P79340 whole entry): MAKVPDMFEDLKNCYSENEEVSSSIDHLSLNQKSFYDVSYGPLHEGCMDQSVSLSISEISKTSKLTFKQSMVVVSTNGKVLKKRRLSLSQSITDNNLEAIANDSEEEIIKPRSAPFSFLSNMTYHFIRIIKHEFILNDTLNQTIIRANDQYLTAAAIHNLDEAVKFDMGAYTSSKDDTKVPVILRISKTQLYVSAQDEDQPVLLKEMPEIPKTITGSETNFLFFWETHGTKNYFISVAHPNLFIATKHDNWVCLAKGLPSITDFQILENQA

human IL-1α (human) [4] = target: human IL-1α (human) (UniProt P01583); assay: as above
Chain of human IL-1α (human) (P01583 whole entry): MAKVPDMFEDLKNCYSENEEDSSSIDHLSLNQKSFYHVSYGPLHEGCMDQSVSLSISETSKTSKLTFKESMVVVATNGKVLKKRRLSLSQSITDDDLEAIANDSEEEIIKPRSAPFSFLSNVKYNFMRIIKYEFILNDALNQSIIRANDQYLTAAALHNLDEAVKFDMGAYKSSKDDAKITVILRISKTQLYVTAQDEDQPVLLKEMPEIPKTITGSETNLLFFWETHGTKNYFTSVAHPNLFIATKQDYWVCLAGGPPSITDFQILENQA

[5] = target: biotinylated human IL-1α (Homo sapiens) (UniProt P01583); assay: ELISA; mAb or DVD-Ig (2 μg/mL) captured by anti-human Fc antibody coated on the plate; biotinylated human IL-1α or IL-1β titrated 1000 ng/mL to 0.597 pg/mL, 1 hour at 25°C; peroxidase-labeled streptavidin
[6] = target: biotinylated human IL-1β (Homo sapiens) (UniProt P01584); assay: as above
[7] = target: cynomolgus IL-1β (Macaca fascicularis) (UniProt P79182)
human IL-1β (human) [8] = target: human IL-1β (human) (UniProt P01584)
[9] = target: cynomolgus IL-1α (Macaca fascicularis) (UniProt P79340)
human IL-1α (human) [10] = target: human IL-1α (human) (UniProt P01583)
[11] = target: cynomolgus IL-1β (Macaca fascicularis) (UniProt P79182); remark: listed apart in the source
human IL-1β (human) [12] = target: human IL-1β (human) (UniProt P01584); remark: listed apart in the source
[13] = target: cynomolgus IL-1α (Macaca fascicularis) (UniProt P79340); remark: listed apart in the source
human IL-1α (human) [14] = target: human IL-1α (human) (UniProt P01583); remark: listed apart in the source
human IL-1β [15] = target: T1, human IL-1β (Homo sapiens, UniProt P01584); assay: SPR; Biacore 3000; mAb or DVD-Ig captured by goat anti-human IgG Fc on a CM5 chip; IL-1 10-200 nM flowed at 25 μL/min; HBS-EP (10 mM HEPES pH 7.4, 150 mM NaCl, 3 mM EDTA, 0.005% P20), 25°C; 1:1 Langmuir global fit, KD = koff/kon; conditions: both partners purified
T1 construct: interleukin-1 beta, human, recombinant; also called recombinant human IL-1β; source: recombinant, AbbVie
T1 sequence (P01584 whole entry): as the sequence (P01584 whole entry) above

human IL-1β [16] = target: T1, human IL-1β; assay: cell-based or functional assay

Chain of cynomolgus IL-1β (Macaca fascicularis) (P79182 whole entry): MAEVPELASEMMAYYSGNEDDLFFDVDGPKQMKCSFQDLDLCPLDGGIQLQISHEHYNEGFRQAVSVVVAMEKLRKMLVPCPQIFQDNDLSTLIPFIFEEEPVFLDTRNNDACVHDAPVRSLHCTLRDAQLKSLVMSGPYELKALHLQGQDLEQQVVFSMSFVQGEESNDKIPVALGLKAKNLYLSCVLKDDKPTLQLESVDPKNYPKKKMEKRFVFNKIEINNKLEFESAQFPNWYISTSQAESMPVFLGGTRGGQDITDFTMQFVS

Kd [1]: 0.0153 nM
Kd (human IL-1β (human) [2]): 0.021 nM
Kd [3]: 0.411 nM
Kd (human IL-1α (human) [4]): 0.0076 nM
EC50 [5]: 0.0064 nM
EC50 [6]: 0.0075 nM
ED50, Average: dose of ABT-981 inhibiting mouse IL-6 induced by 30 ng cynomolgus IL-1β in C57/BL6 mice [7]: 0.004 mg/kg
ED50, Expt #1: dose of ABT-981 inhibiting mouse IL-6 induced by 30 ng cynomolgus IL-1β in C57/BL6 mice [7]: 0.002 mg/kg
ED50, Expt #2: dose of ABT-981 inhibiting mouse IL-6 induced by 30 ng cynomolgus IL-1β in C57/BL6 mice [7]: 0.006 mg/kg
ED80, Average: dose of ABT-981 inhibiting mouse IL-6 induced by 30 ng cynomolgus IL-1β in C57/BL6 mice [7]: 0.094 mg/kg
ED80, Expt #1: dose of ABT-981 inhibiting mouse IL-6 induced by 30 ng cynomolgus IL-1β in C57/BL6 mice [7]: 0.098 mg/kg
ED80, Expt #2: dose of ABT-981 inhibiting mouse IL-6 induced by 30 ng cynomolgus IL-1β in C57/BL6 mice [7]: 0.11 mg/kg
ED50, Average: dose of ABT-981 inhibiting mouse IL-6 induced by 30 ng human IL-1β in C57/BL6 mice (human IL-1β (human) [8]): 0.016 mg/kg
ED50, Expt #1: dose of ABT-981 inhibiting mouse IL-6 induced by 30 ng human IL-1β in C57/BL6 mice (human IL-1β (human) [8]): 0.02 mg/kg
ED50, Expt #2: dose of ABT-981 inhibiting mouse IL-6 induced by 30 ng human IL-1β in C57/BL6 mice (human IL-1β (human) [8]): 0.012 mg/kg
ED80, Average: dose of ABT-981 inhibiting mouse IL-6 induced by 30 ng human IL-1β in C57/BL6 mice (human IL-1β (human) [8]): 0.28 mg/kg
ED80, Expt #1: dose of ABT-981 inhibiting mouse IL-6 induced by 30 ng human IL-1β in C57/BL6 mice (human IL-1β (human) [8]): 0.27 mg/kg
ED80, Expt #2: dose of ABT-981 inhibiting mouse IL-6 induced by 30 ng human IL-1β in C57/BL6 mice (human IL-1β (human) [8]): 0.32 mg/kg
ED50, Average: dose of ABT-981 inhibiting mouse IL-6 induced by 30 ng cynomolgus IL-1α in C57/BL6 mice [9]: 6.5 mg/kg
ED50, Expt #1: dose of ABT-981 inhibiting mouse IL-6 induced by 30 ng cynomolgus IL-1α in C57/BL6 mice [9]: 5.2 mg/kg
ED50, Expt #2: dose of ABT-981 inhibiting mouse IL-6 induced by 30 ng cynomolgus IL-1α in C57/BL6 mice [9]: 7.7 mg/kg
ED80, Average: dose of ABT-981 inhibiting mouse IL-6 induced by 30 ng cynomolgus IL-1α in C57/BL6 mice [9]: 18.2 mg/kg
ED80, Expt #1: dose of ABT-981 inhibiting mouse IL-6 induced by 30 ng cynomolgus IL-1α in C57/BL6 mice [9]: 16.1 mg/kg
ED80, Expt #2: dose of ABT-981 inhibiting mouse IL-6 induced by 30 ng cynomolgus IL-1α in C57/BL6 mice [9]: 20.2 mg/kg
ED50, Average: dose of ABT-981 inhibiting mouse IL-6 induced by 30 ng human IL-1α in C57/BL6 mice (human IL-1α (human) [10]): 0.005 mg/kg
ED50, Expt #1: dose of ABT-981 inhibiting mouse IL-6 induced by 30 ng human IL-1α in C57/BL6 mice (human IL-1α (human) [10]): 0.007 mg/kg
ED50, Expt #2: dose of ABT-981 inhibiting mouse IL-6 induced by 30 ng human IL-1α in C57/BL6 mice (human IL-1α (human) [10]): 0.002 mg/kg
ED80, Average: dose of ABT-981 inhibiting mouse IL-6 induced by 30 ng human IL-1α in C57/BL6 mice (human IL-1α (human) [10]): 0.104 mg/kg
ED80, Expt #1: dose of ABT-981 inhibiting mouse IL-6 induced by 30 ng human IL-1α in C57/BL6 mice (human IL-1α (human) [10]): 0.17 mg/kg
ED80, Expt #2: dose of ABT-981 inhibiting mouse IL-6 induced by 30 ng human IL-1α in C57/BL6 mice (human IL-1α (human) [10]): 0.04 mg/kg
Neutralization potency IC50, MRC-5 cell bioassay: IL-8 release on 3 pM cynomolgus IL-1β [11]: 8.4 pM
Neutralization potency IC50, MRC-5 cell bioassay: IL-8 release on 3 pM human IL-1β (human IL-1β (human) [12]): 16 pM
Neutralization potency IC50, MRC-5 cell bioassay: IL-8 release on 3 pM cynomolgus IL-1α [13]: 955 pM
Neutralization potency IC50, MRC-5 cell bioassay: IL-8 release on 3 pM human IL-1α (human IL-1α (human) [14]): 16.2 pM
Molecule: ABT-981 (bispecific antibody)

Kd (human IL-1β [15]): 0.242 nM
Neutralization potency IC50, MRC-5 cell bioassay: IL-8 release on 3 pM human IL-1β (human IL-1β [16]): 400 pM
B1: humanized SK48-E26 mAb (antibody, V domains shown)
VH: EVQLVESGGGVVQPGRSLRLSCSSSGFIFSSYDMSWVRQAPGKGLEWVAYISSGGGGTYYPDTVKGRFTISRDNSKNTLFLQMDSLRPEDTGVYFCARGGVTKGYFDVWGQGTPVTVSS
VL: DIQMTQSPSSLSASVGDRVTITCRASGNIHNYLTWYQQTPGKAPKLLIYNAKTLADGVPSRFSGSGSGTDYTFTISSLQPEDIATYYCQHFWSIPYTFGQGTKLQIT
